Target: SpyCatcher‐mi3 fusion protein
Test: SDS-PAGE of the covalent conjugate

For “2019‐nCoV RBD‐SpyTag (from UniProt P0DTC2 319-541) (domain or fragment)”, which stoichiometry N (RBD monomers per particle) is on record?
The stoichiometry N (RBD monomers per particle) was 30.

From article PMC8459632
